Experiment: Thermostability and storage stability of purified gluconate dehydratase (remaining activity after standing)
Type: physicochemical, Achromobacter xylosoxidans strain ATCC 9220
Method: The gluconate dehydratase activity in the present invention produces 2-keto-3-deoxy-D-gluconic acid, using D-gluconic acid as the substrate. The activity can be determined as follows: A reaction mixture in an amount of 1 mL containing […] of a Tris buffer (pH 8.5), 40 μmol of sodium D-gluconate, 1 μmol of magnesium chloride, and the gluconate dehydratase is allowed to react at 37° C. for 10 minutes, and 200 μL of 1 M hydrochloric acid solution is added to the reaction mixture to stop the reaction; and then, the amount of the resulting 2-keto-3-deoxy-D-gluconic acid is determined by high-performance liquid chromatography (column: Shodex Asahipak NH2P-50 4E, produced by Showa Denko, column temperature: 40° C., mobile phase: 50 mM sodium dihydrogen phosphate solution, flow rate: 1 mL/min, detection at 210 nm). An amount of enzyme for catalyzing the production of 1 μmol of 2-keto-3-deoxy-D-gluconic acid for one minute is defined as 1 U. The amount of protein may be determined by a dye-binding method using a Bio-Rad protein assay kit.
Samples of the purified gluconate dehydratase solution prepared in Example 3, which was dissolved in the 30 mM Tris buffer (pH 8.5) containing 1 mM sodium D-gluconate and 1 mM magnesium chloride, […] Another sample was allowed to stand at 4° C. for 7 days and 30 days. […]

B1: Gluconate Dehydratase: heat-resistant gluconate dehydratase purified from Achromobacter xylosoxidans strain ATCC 9220, amino acid sequence SEQ ID NO:2 (protein)
chain: MTDTPRKLRSQKWFDDPAHADMTAIYVERYLNYGLTRQELQSGRPIIGIAQTGSDLAPCNRHHLALAERIKAGIRDAGGIPMEFPVHPLAEQGRRPTAALDRNLAYLGLVEILHGYPLDGVVLTTGCDKTTPACLMAAATVDIPAIVLSGGPMLDGWHDGQRVGSGTVIWHARNLMAAGKLDYEGFMTLATASSPSIGHCNTMGTALSMNSLAEALGMSLPTCASIPAPYRERGQMAYATGLRICDMVREDLRPSRILTREAFENAIVVASALGASSNCPPHLIAMARHAGIDLSLDDWQRLGEDVPLLVNCVPAGEHLGEGFHRAGGVPAVMHELLAAGRLHADCATVSGKTIGEIAAGAKTHDADVIRGCDAPLKHRAGFIVLSGNFFDSAVIKMSVVGEAFRRAYLSAPGDENAFEARAIVFEGPEDYHARIEDPALNIDEHCILVIRGAGTVGYPGSAEVVNMAPPSHLIKRGIDSLPCLGDGRQSGTSASPSILNMSPEAAVGGGLALLRTGDRIRVDLNQRSVIALVDEAELARRRQDPPYQPPPAQTPWQELYRQLVGQLSTGGCLEPSTLYLKVVETRGDPRHSH
modifications: Achromobacter xylosoxidans
- Remaining activity (%) (buffer, 168 h): 100%
- Storage stability of the activity (storage at 0° C. in Tris buffer (pH 8.0 to 8.8), 1 mM sodium D-gluconate, 1 mM magnesium chloride (same conditions as the M250 report)): maintain the activity stably for one month

From patent US7125704B2, “Gluconate dehydratase” (priority 2003, dated 2006)
